Measured values reported in patent US20220340905, “NUCLEIC ACID APTAMER SPECIFICALLY RECOGNIZING B-LACTOGLOBULIN AND USE THEREOF” (JIANGNAN UNIVERSITY, published 2022).

T1: beta-lactoglobulin (UniProt P02754 P02754:17-178)
T1 sequence: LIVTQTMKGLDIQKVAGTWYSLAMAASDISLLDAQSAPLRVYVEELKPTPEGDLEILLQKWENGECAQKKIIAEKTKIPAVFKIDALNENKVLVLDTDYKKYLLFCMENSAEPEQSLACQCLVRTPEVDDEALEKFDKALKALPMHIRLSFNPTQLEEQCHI

T2: alpha-lactalbumin (UniProt P00711 P00711:20-142)
T2 sequence: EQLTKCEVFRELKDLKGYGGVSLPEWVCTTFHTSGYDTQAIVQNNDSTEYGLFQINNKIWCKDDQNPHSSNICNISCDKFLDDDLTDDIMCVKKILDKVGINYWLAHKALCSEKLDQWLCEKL


Experiments:
beta-lactoglobulin [1] = molecular target: T1, beta-lactoglobulin; experiment: magnetic bead strand-displacement fluorescence assay, 37 C; details: label: 5'-FAM (fluorescence assay)
Method: (§1) Various concentrations (10 nM, 25 nM, 50 nM, 75 nM, 100 nM, 150 nM, 200 nM, and 300 nM) of the aptamer were respectively mixed with the biotinylated complementary short chain at a molar ratio of 1:1.5, denatured at 95° C. for 10 min, and slowly cooled to 37° C. for 3 h until the two were fully hybridized. The mixture was reacted with a certain amount of streptavidin-coupled magnetic beads (where the weight ratio of the aptamer to the magnetic beads was 1:400) at 37° C. and 200 rpm for 2 h to immobilize the aptamer on the magnetic beads by the strong binding between the biotin and streptavidin. The immobilized magnetic beads were incubated with 50 μg/mL β-lactoglobulin in a 300 μL system at 37° C. and 200 rpm. After magnetic separation, the supernatant was subjected to fluorescence measurement at an excitation wavelength of 485 nm and an emission wavelength of 522 nm. The relative fluorescence intensity at various aptamer concentrations was nonlinearly fitted by GraphPad prism 5.0 software, and the dissociation constant Kd of the aptamer was calculated (see Table 1). […] The homologous sequences (Lg-9 and Lg-16) of the aptamer Lg-18 also have good ability of binding to β-lactoglobulin.

alpha-lactalbumin = molecular target: T2, alpha-lactalbumin; experiment: specificity control, 50 ug/mL protein, 200 nM aptamer on magnetic beads; text states good specificity, values only in figure; details: label: 5'-FAM (fluorescence assay); stem-loop (Mfold predicted)
Method: (§2) Various concentrations (10 nM, 25 nM, 50 nM, 75 nM, 100 nM, 150 nM, 200 nM, and 300 nM) of the aptamer were respectively mixed with the biotinylated complementary short chain at a molar ratio of 1:1.5, denatured at 95° C. for 10 min, and slowly cooled to 37° C. for 3 h until the two were fully hybridized. The mixture was reacted with a certain amount of streptavidin-coupled magnetic beads (where the weight ratio of the aptamer to the magnetic beads was 1:400) at 37° C. and 200 rpm for 2 h to immobilize the aptamer on the magnetic beads by the strong binding between the biotin and streptavidin. The immobilized magnetic beads were incubated with 50 μg/mL β-lactoglobulin in a 300 μL system at 37° C. and 200 rpm. After magnetic separation, the supernatant was subjected to fluorescence measurement at an excitation wavelength of 485 nm and an emission wavelength of 522 nm. The relative fluorescence intensity at various aptamer concentrations was nonlinearly fitted by GraphPad prism 5.0 software, and the dissociation constant Kd of the aptamer was calculated (see Table 1). […]
(§3) The specificity of the aptamer (Lg-18) was evaluated by the same method. […] After magnetic separation, the fluorescence intensity of the supernatant was measured respectively, and then the specificity of the aptamer was evaluated.

[2] = molecular target: BSA (bovine serum albumin) (Bos taurus, UniProt P02769 P02769:25-607); experiment: as above; details: label: 5'-FAM (fluorescence assay); stem-loop (Mfold predicted)
Method: as §2, §3

beta-lactoglobulin [3] = molecular target: T1, beta-lactoglobulin; experiment: magnetic bead strand-displacement fluorescence assay, 37 C; aptamer hybridised to biotinylated short chain, released by 50 ug/mL protein; ITC in 10 mM Tris-HCl; details: label: 5'-FAM (fluorescence assay); stem-loop (Mfold predicted)
Method: as §1

Sequence of BSA (bovine serum albumin) (P02769 25-607, one chain of several): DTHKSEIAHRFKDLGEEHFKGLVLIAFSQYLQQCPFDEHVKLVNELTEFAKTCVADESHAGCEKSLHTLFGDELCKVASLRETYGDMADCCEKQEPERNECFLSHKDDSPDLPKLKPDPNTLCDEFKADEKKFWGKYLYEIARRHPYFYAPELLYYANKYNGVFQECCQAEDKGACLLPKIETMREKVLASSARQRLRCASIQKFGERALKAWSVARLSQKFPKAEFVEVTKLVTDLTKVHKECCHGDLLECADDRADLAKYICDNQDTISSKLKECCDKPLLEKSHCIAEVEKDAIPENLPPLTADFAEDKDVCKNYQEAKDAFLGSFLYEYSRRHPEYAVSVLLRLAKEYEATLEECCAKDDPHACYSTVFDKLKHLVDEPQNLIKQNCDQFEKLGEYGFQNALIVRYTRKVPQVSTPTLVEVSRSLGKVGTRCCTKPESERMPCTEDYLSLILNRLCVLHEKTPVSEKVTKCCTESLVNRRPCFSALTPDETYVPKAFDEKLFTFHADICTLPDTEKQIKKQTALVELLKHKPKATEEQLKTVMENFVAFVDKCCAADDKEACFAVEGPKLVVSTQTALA

Binder	Kd (beta-lactoglobulin [1]) [nM]	binding result (alpha-lactalbumin)	binding result [2]	Kd (beta-lactoglobulin [3]) [nM]
Lg-9 (ssDNA) DNA: AGCAGCACAGAGGTCAGATGGTTTTGTTGGGTCTGCTACGGACTTTGTTGACCTTTGCTCCCTATGCGTGCTACCGTGAA	71.8			
Lg-16 (ssDNA) DNA: AGCAGCACAGAGGTCAGATGTCGTTTGTGGCTGTCAATTGGTGTGTTTACCTGTTTTGGCCTATGCGTGCTACCGTGAA	65.8			
Lg-18 (ssDNA) DNA: AGCAGCACAGAGGTCAGATGTTCGGCCTTTGCGTTAACGAACTTCTAGCTATGCGGCGTACCTATGCGTGCTACCGTGAA		no binding	no binding	65
